± gives the standard deviation of the averaged measurements.

These results are taken from the supplement of paper PMC10724198.

The subject of the series is Saccharomyces cerevisiae. The series is described as follows: protein stability index of tFT-peptide fusion (C-terminal peptide) (PSI (0-1 scale)); higher = more stable (slower turnover). The settings on record: temperature: 30 C. The method, then:
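MPS profiling in S. cerevisiae of the yeast C-terminome library: the last 12 aa of each annotated ORF are fused to the C-terminus of a sfGFP-mCherry timer, after a GGGS linker. Cells are FACS-sorted into 8 mCherry/sfGFP bins and deep-sequenced. PSI runs from 0 (unstable) to 1 (stable); wild type and das1Δ backgrounds, two technical replicates each.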

Setting [1] is: genetic background: das1 deletion.

As to DILGFKIAPRSA [YGR210C C-terminal 12 aa], the protein stability index by setting is: under setting [1], 0.682 ± 0.049; (genetic background: wild type) 0.7073 ± 0.0013.

DILGSLLAKKRK [MRE11 C-terminal 12 aa]: the protein stability index runs as follows: under setting [1], 0.681 ± 0.023; (genetic background: wild type) 0.672 ± 0.022.

With DILLSCIADLTI [POL2 C-terminal 12 aa], the protein stability index is 0.71 ± 0.04 under setting [1] and 0.707 ± 0.054 (genetic background: wild type).

Regarding DISDSEGGLFEC [PCI8 C-terminal 12 aa], the protein stability index was 0.69 ± 0.085 under setting [1] and 0.694 ± 0.085 (genetic background: wild type).

As to DIYNQLHMFGEK [IGD1 C-terminal 12 aa], the protein stability index runs as follows: under setting [1], 0.663 ± 0.0086; (genetic background: wild type) 0.688 ± 0.01.

For the sequence DKEVVYFDEWTI [RPC34 C-terminal 12 aa], the protein stability index by setting is: under setting [1], 0.726 ± 0.062; (genetic background: wild type) 0.729 ± 0.032.

Turning to DKLAKLLSLDIH [MSH3 C-terminal 12 aa], the protein stability index is, setting by setting: under setting [1], 0.7167 ± 0.0065; (genetic background: wild type) 0.708 ± 0.025.

On to DKVPVHYPPVVE [SYM1 C-terminal 12 aa], for which the protein stability index by setting is: under setting [1], 0.686 ± 0.028; (genetic background: wild type) 0.709 ± 0.045.

In the case of DLAERLAETEIK [RNA1 C-terminal 12 aa], the protein stability index amounted to 0.703 ± 0.0088 under setting [1] and 0.692 ± 0.024 (genetic background: wild type).

As to DLASFIKKSLSS [TML25 C-terminal 12 aa], the protein stability index turned out to be 0.694 ± 0.017 under setting [1] and 0.734 ± 0.032 (genetic background: wild type).

In the case of DLKIYLQQDESL [YEL023C C-terminal 12 aa], the protein stability index worked out at 0.709 ± 0.028 under setting [1] and 0.672 ± 0.015 (genetic background: wild type).

With DNPETKNGRENK [ECM10 C-terminal 12 aa], the protein stability index under setting [1] was 0.675 ± 0.016 and the protein stability index (genetic background: wild type) amounted to 0.6426 ± 0.00097.

With DPNGILNPYKYI [DLD2 C-terminal 12 aa], the protein stability index is 0.708 ± 0.024 under setting [1] and 0.6117 ± 0.003 (genetic background: wild type).

For the sequence DQFQLITQGIYS [PIK1 C-terminal 12 aa], the protein stability index was found to be 0.722 ± 0.034 under setting [1] and 0.717 ± 0.099 (genetic background: wild type).

The sequence DQLLALYEDGLL [AHC2 C-terminal 12 aa] came in with a protein stability index under setting [1] of 0.7371 ± 0.0043 and a protein stability index (genetic background: wild type) of 0.72 ± 0.043.

Turning to DRVGEVFAKLFG [NNR2 C-terminal 12 aa], the protein stability index reads like this: under setting [1], 0.7119 ± 0.0012; (genetic background: wild type) 0.728 ± 0.011.

As to DSERKVLSEALL [KAP114 C-terminal 12 aa], the protein stability index is, setting by setting: under setting [1], 0.676 ± 0.013; (genetic background: wild type) 0.6846 ± 0.0027.

On to DSFFFDVLAQLP [YLR434C C-terminal 12 aa], for which the protein stability index under setting [1] came to 0.7357 ± 0.0072 and the protein stability index (genetic background: wild type) was determined as 0.686 ± 0.012.

With “DTCKSVLYCSTS [YMR193C-A C-terminal 12 aa]”, the protein stability index runs as follows: under setting [1], 0.694 ± 0.022; (genetic background: wild type) 0.65 ± 0.0067.

Take DTHTNEIIKKEI [HRQ1 C-terminal 12 aa]: the protein stability index under setting [1] is 0.6984 ± 0.004 and the protein stability index (genetic background: wild type) worked out at 0.695 ± 0.032.

The sequence DVFEEIGYSMKD [SAE3 C-terminal 12 aa] yielded a protein stability index under setting [1] of 0.715 ± 0.0034 and a protein stability index (genetic background: wild type) of 0.789 ± 0.041.

In the case of DVHDDVESDDEI [ALF1 C-terminal 12 aa], the protein stability index came out at 0.6961 ± 0.0065 under setting [1] and 0.7005 ± 0.0059 (genetic background: wild type).

As to DVKPQENGNDSS [REG1 C-terminal 12 aa], the protein stability index reads like this: under setting [1], 0.71 ± 0.014; (genetic background: wild type) 0.705 ± 0.037.

Sequence DWEAIDAQTIKL [FAT1 C-terminal 12 aa] gave a protein stability index under setting [1] of 0.746 ± 0.0075 and a protein stability index (genetic background: wild type) of 0.768 ± 0.021.

DYKKFIEDVLRQ [MLC1 C-terminal 12 aa] showed a protein stability index under setting [1] of 0.696 ± 0.033 and a protein stability index (genetic background: wild type) of 0.702 ± 0.04.

Sequence EAELEEDWGMYG [YBR062C C-terminal 12 aa] yielded a protein stability index under setting [1] of 0.7114 ± 0.0068 and a protein stability index (genetic background: wild type) of 0.7097 ± 0.0017.

EANNLLNIIKGN [MRP51 C-terminal 12 aa]: the protein stability index by setting is: under setting [1], 0.6795 ± 0.0042; (genetic background: wild type) 0.294 ± 0.035.

Consider EAQLSRSEVLLV [COS2 C-terminal 12 aa], for which the protein stability index runs as follows: under setting [1], 0.648 ± 0.0028; (genetic background: wild type) 0.6242 ± 0.0027.

Consider EAQLTRKQAPPV [COS9 C-terminal 12 aa], for which the protein stability index reads like this: under setting [1], 0.7035 ± 0.004; (genetic background: wild type) 0.699 ± 0.015.

For the sequence EATYKVLQQLHK [ADE8 C-terminal 12 aa], the protein stability index is, setting by setting: under setting [1], 0.71 ± 0.012; (genetic background: wild type) 0.7224 ± 0.00099.

For EAVYELAKMSLA [MYG1 C-terminal 12 aa], the protein stability index came to 0.703 ± 0.025 under setting [1] and 0.6777 ± 0.0052 (genetic background: wild type).

For ECDGITVPEKLT [MSC6 C-terminal 12 aa], the protein stability index reads like this: under setting [1], 0.682 ± 0.012; (genetic background: wild type) 0.708 ± 0.011.

As to “ECRARKASSNRS [YGR109W-A C-terminal 12 aa]”, the protein stability index under setting [1] came out at 0.681 ± 0.0073 and the protein stability index (genetic background: wild type) was 0.707 ± 0.024.

On to EDAEKRADEMDD [SRM1 C-terminal 12 aa], for which the protein stability index reads like this: under setting [1], 0.691 ± 0.034; (genetic background: wild type) 0.675 ± 0.033.
